B1: BBSome complex member BBS5 (Homo sapiens), Q8N3I7 (parent)
chain: MSVLDALWEDRDVRFDLSAQQMKTRPGEVLIDCLDSIEDTKGNNGDRGRLLVTNLRILWHSLALSRVNVSVGYNCILNITTRTANSKLRGQTEALYILTKCNSTRFEFIFTNLVPGSPRLFTSVMAVHRAYETSKMYRDFKLRSALIQNKQLRLLPQEHVYDKINGVWNLSSDQGNLGTFFITNVRIVWHANMNDSFNVSIPYLQIRSIKIRDSKFGLALVIESSQQSGGYVLGFKIDPVEKLQESVKEINSLHKVYSASPIFGVDYEMEEKPQPLEALTVEQIQDDVEIDSDGHTDAFVAYFADGNKQQDREPVFSEELGLAIEKLKDGFTLQGLWEVMS
partner: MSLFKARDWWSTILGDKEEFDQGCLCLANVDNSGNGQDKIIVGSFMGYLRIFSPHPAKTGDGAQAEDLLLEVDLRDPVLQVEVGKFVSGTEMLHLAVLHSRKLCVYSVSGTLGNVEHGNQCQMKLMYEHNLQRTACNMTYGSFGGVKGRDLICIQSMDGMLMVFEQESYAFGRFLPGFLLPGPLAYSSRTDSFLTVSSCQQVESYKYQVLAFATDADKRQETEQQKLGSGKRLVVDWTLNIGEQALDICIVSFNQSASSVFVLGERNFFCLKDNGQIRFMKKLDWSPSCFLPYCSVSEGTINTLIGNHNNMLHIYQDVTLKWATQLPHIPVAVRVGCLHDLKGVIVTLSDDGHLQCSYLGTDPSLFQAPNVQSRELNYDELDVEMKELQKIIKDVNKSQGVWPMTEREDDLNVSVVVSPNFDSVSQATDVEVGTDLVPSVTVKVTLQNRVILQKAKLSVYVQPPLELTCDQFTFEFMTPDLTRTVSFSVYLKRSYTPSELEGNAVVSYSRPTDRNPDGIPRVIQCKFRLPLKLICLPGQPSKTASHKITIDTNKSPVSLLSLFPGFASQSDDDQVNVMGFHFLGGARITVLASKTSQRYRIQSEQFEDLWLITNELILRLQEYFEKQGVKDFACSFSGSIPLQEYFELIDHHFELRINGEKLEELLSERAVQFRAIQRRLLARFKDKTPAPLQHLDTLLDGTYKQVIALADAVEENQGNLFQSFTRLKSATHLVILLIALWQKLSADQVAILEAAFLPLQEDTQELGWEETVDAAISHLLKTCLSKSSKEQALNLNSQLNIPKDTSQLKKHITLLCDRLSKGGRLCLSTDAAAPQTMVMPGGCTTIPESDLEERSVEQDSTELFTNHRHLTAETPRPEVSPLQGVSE

Variants of: B1
Details: with pthb1_human BBS9, Q3SYG4

Effect of a mutation on the interaction, with no effect:
G48K
G48A
G48E
G27K
D35E
D35K
D35A
R25A
D32K
D32A
D32E
T24A
T24K
T24E
I31K
I31E
G45E
G45K
G45A
S36E
S36K
S36A
G42A
G42K
Q20K
V29E
L34A
L34E
L34K
K41E
K41A
E38A
E38K
C33K
C33E
C33A
N43A
N43K
N43E
P26A
P26K
I37K
I37E
I37A
D46E
D46A
D46K
Q21K
Q21E
Q21A
L30K
L30E
L30A
D39A
D39E
D39K
R47A
R47K
R47E
N44E
N44K
N44A
K23E
K23A
T40E
T40A
T40K

Effect of a mutation on the interaction, disrupting interaction strength:
G27E
G27A
G27R
R25E
R25K
D32G
I31A
G42E
V29K
V29A
P26E
E28A
E28K
D46N
L30P
M22K
M22A
M22E

— IntAct's records for PubMed 29039417
